Data on 1 protein can be found in article PMC8349882 (Molecular cell, 2021).

One may read the stoichiometry N as a count of units in the complex or per binding partner.

This data set concerns the molecule itself. The data set is described as follows: crystal structure.

B1: GLR3.4-S1S2 (isolated ligand-binding domain of GLR3.4) (domain or fragment, Arabidopsis thaliana)
chain: KPLRIGVPNRVSYTDYVSKDKNPPGVRGYCIDVFEAAIELLPYPVPRTYILYGDGKRNPSYDNLVNEVVADNFDVAVGDITIVTNRTRYVDFTQPFIESGLVVVAPVKEAGTIEGIDSLVTSNEPIGVQDGTFARNYLINELNILPSRIVPLKDEEQYLSALQRGPNAGGVAAIVDELPYIEVLLTNSNCKFRTVGQEFTRTGWGFAFQRDSPLAVDMSTAILQLSEEGELEKIHRKWLNYKHECS
On to B1, for which the “stoichiometry N” value turned out to be 2.
